Laboratory results published in US20210403579A1 (DELINIA, published 2021).
Where a chain is given by its changes, count along the chain named.

T1: Human ST2 (human, UniProt Q01638 19-328, limits assumed)
T1 construct: also called human ST2 protein; Interleukin 1 receptor-like 1
T1 sequence (looked up): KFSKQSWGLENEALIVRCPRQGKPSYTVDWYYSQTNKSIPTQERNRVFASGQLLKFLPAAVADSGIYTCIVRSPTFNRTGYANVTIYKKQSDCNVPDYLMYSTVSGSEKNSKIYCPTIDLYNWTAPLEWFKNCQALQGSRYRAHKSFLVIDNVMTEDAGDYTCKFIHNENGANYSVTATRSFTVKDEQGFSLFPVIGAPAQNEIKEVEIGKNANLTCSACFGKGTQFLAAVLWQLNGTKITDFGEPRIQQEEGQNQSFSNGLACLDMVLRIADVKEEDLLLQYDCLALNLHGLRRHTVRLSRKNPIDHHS

B1: Human ST2 IgG1 Antibody 56 (antibody, V domains shown)
VH: EVQLLESGGGLVKPGGSLRLSCAASGFTFSSYAMSWVRQAPGKGLEWVSSISSDSYYKYHADSVKGRFTISRDDSKNTLYLQMNSLKTEDTAVYYCAKGADYDFWSGYLDYWGQGTLVTVSS
VL: DIQMTQSPSSLSASVGDRVTITCRASQGISSYLAWYQQKPGKAPKLLIYRASTLQSGVPSRFSGSGSGTDFTLTISSLQPEDFATYYCQQSYNTPWTFGQSTKVEIKR
notes: IgG1; also called ST2 Antibody 56
B2: Human ST2 IgG1 Antibody 67 (antibody, V domains shown)
VH: QVQLVQSGAEVKKPGASVKVSCKASGGTFSSYAISWVRQAPGQGLEWMGRINPNSGGTVYAQKFQGRVTMTRDTSTSTVYMELSSLRSEDTAVYYCARDTSIAARLNPDYYYYYGMDVWGQGTTVTVSS
VL: B1 VL with G28S, Y32W, R50A, T53N, N93S, W96V, K103R, V104L
notes: IgG1; also called ST2 Antibody 67
B3: Human ST2 IgG1 Antibody 59 (antibody, V domains shown)
VH: EVQLLESGGGVVQPGRSLRLSCAASGFTFSSYWMSWVRQAPGKGLEWVSSISSDSSYKYYADSVKGRFTISRDNSKNTLYLQMNSLRAEDTAVYYCARDGLRWDAFDIWGQGTMVTVSS
VL: not shown
notes: IgG1; also called ST2 Antibody 59
B4: Human ST2 IgG1 Antibody 51 (antibody, V domains shown)
VH: QVQLVQSGAEVKKPGSSVKVSCKASGGSFSRSSISWVRQAPGQGLEWMGGIIPIFGAPVYAQDLQGRVTITADESTSTAYMELSSLRSEDTAVYYCARDHPHCSSTSCYYGMDVWGQGTTVTVSS
VL: EIVMTQSPATLSVSPGERATLSCRASQTISSSYLAWYQQKPGQAPRLLIYGASTRATGIPARFSGSGSGTEFTLTISSLQSEDFAVYYCQQYGSSPLTFGGGTKVEIKR
notes: IgG1; also called ST2 Antibody 51
B5: Human ST2 IgG1 Antibody 70 (antibody, V domains shown)
VH: QVQLVQSGAEVKKPGSSVKVSCKASGYAFTDYFIHWVRQAPGQGLEWMGGIIPIFGTANYAQKFQGRVTITADKSTSTAYMELSSLRSEDTAVYYCARVAYGAFDIWGQGTMVTVSS
VL: B4 VL with T28S, I29V, G93N, S94N, S95W
notes: IgG1; also called ST2 Antibody 70
B6: Human ST2 IgG1 Antibody 58 (antibody, V domains shown)
VH: EVQLLESGAEVKKPGSSVKVSCKASGGTFSSYAISWVRQAPGQGLEWMGGIIPIFGTANYAQKFQGRVTITADKSTSTAYMELSSLRSEDTAVYYCARPRLAVAGGWYFDLWGRGTLVTVSS
VL: DIQMTQSPSSLSASVGDRVTITCQASQDISNYLNWYQQKPGKAPKLLIYAASSLQSGVPSRFSGSGSGTDFTLTISSLQPEDFATYYCQQSFSSTPTFGQGTKLEIKR
notes: IgG1; also called ST2 Antibody 58
B7: Human ST2 IgG1 Antibody 57 (antibody, V domains shown)
VH: QVQLVQSGAEVKKPGASVKVSCKASGYTFTGYYMHWVRQAPGQGLEWMGVINPSGGSTSYAQKFQGRVTMTRDTSTSTVYMELSSLRSEDTAVYYCARGDYYYGSGSDYYYYYGMDVWGQGTLVTVSS
VL: DIQMTQSPSSLSASVGDRVTITCRASQGVTSWLAWYQQKPGKAPKLLIYAASTLQSGVPSRFSGSGSGTDFTLTISSLQPEDFATYYCQQANSFPLTFGGGTKVEIKR
notes: IgG1; also called ST2 Antibody 57
B8: Human ST2 IgG1 Antibody 60 (antibody, V domains shown)
VH: QVQLVQSGAEVKKPGASVKVSCKASGYTFTDHYLHWVRQAPGQGLEWMGIINPSGGYTSHAQKFQGRVTMTRDTSTSTVYMELSSLRSEDTAVYYCARDRFRELLGSRYYGMDVWGQGTTVTVSS
VL: B7 VL with G28D, V29L, T30S, S31N, W32H, A91Y, N92H, S93D, F94W, G100Q
notes: IgG1; also called ST2 Antibody 60
B9: Human ST2 IgG1 Antibody 53 (antibody, V domains shown)
VH: QVQLVQSGAEVKKPGSSVKVSCKASGGTFSSYAISWVRQAPGQGLEWMGGIIPIFGTANYAQKFQGRVTITADESTSTAYMELSSLRSEDTAVYYCARVPADYYYYYYGMDVWGQGTTVTVSS
VL: not shown
notes: IgG1; also called ST2 Antibody 53
B10: Human ST2 IgG1 Antibody 61 (antibody, V domains shown)
VH: QVQLVQSGAEVKKPGSSVKVSCKASGGTFSNYAISWVRQAPGQGLEWMGGIIPVFGTATYAQKFQGRVTITADESTSTAYMELSSLRSEDTAVYYCARVTAMGVGWYFDLWGRGTLVTVSS
VL: DIVMTQSPLSLPVTPGEPASISCRSSQSLLHSNGYNYLDWYLQKPGQSPQLLIYAASSLQSGVPDRFSGSGSGTDFTLKISRVEAEDVGVYYCMQSLQTPPTFGQGTKLEIKR
notes: IgG1; also called ST2 Antibody 61
B11: Human ST2 IgG1 Antibody 63 (antibody, V domains shown)
VH: QVQLVQSGAEVKKPGSSVKVSCKASGGTFSSDAINWVRQAPGQGLEWMGGIVPAFGTANYAQKFQGRVTITADESTSTAYMELSSLRSEDTAVYYCARSSSSWPYYYYYMDVWGKGTTVTVSS
VL: B10 VL with H31L, S32N, Y35N, Y37F, L38I, S58I, S61G, S96A, L109V
notes: IgG1; also called ST2 Antibody 63
B12: Human ST2 IgG1 Antibody 66 (antibody, V domains shown)
VH: QVQLVQSGAEVKKPGSSVKVSCKASGGTFSSNAISWVRQAPGQGLEWMGGIIPIFGTANYAQKFQGRVTITADESTSTAYMELSSLRSEDTAVYYCAGSPTGTPRVVFDYWGQGTLVTVSS
VL: B10 VL with S96A, P101I, K108R
notes: IgG1; also called ST2 Antibody 66
B13: Human ST2 IgG1 Antibody 69 (antibody, V domains shown)
VH: QVQLVQSGAEVKKPGASVKVSCKASGYTFSDYYVHWVRQAPGQGLEWMGWISAYNGNTNYAQKLQGRVTMTRDTSTSTVYMELSSLRSEDTAVYYCARGSLDIWFREPGVYMDVWGKGTTVTVSS
VL: B10 VL with S96A, P101I, L109V
notes: IgG1; also called ST2 Antibody 69
B14: Human ST2 IgG1 Antibody 64 (antibody, V domains shown)
VH: QVQLVQSGAEVKKPGSSVKVSCKASGYFFTSYGISWVRQAPGQGLEWMGGVIPISGTANYAQSFQGRVTITADESTSTAYMELSSLRSEDTAVYYCARDENGAFDIWGQGTTVTVSS
VL: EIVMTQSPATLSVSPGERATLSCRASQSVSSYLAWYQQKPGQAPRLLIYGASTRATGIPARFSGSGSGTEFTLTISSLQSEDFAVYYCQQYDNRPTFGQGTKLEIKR
notes: IgG1; also called ST2 Antibody 64
B15: Human ST2 IgG1 Antibody 50 (antibody, V domains shown)
VH: QVQLVQSGAEVKKPGASVKVSCKASGAAFNTVAISWVRQAPGQGLEWMGWMNPNSGNTGYAQKFQGRVTMTRDTSTSTVYMELSSLRSEDTAVYYCARTPAAAGTVYFDYWGQGTLVTVSS
VL: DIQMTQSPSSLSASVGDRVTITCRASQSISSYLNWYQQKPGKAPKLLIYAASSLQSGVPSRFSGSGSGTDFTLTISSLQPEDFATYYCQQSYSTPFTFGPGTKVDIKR
notes: IgG1; also called ST2 Antibody 50
B16: Human ST2 IgG1 Antibody 68 (antibody, V domains shown)
VH: QVQLVQSGAEVKKPGSSVKVSCKASGGTFSSYAISWVRQAPGQGLEWMGGIIPVVGSPDYAQRFQGRVTITADESTSTAYMELSSLRSEDTAVYYCARHSIVGATATSMDVWGKGTTVTVSS
VL: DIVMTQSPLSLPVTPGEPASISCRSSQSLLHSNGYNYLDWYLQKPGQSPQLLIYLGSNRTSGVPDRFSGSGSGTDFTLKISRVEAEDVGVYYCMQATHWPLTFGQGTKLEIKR
notes: IgG1; also called ST2 Antibody 68
B17: Human ST2 IgG1 Antibody 62 (antibody, V domains shown)
VH: QVQLVQSGAEVKKPGSSVKVSCKASGYIFTNYWIQWVRQAPGQGLEWMGGIIPIFETANYAQKFQGRVTITADDSTSTAYMELSSLRSEDTAVYYCARLGDRGDFDYWGQGTLVTVSS
VL: DIVMTQSPDSLAVSLGERATINCKSSQSISHSPNTRDYLAWYQQKPGQPPKLLIYWASTRESGVPDRFSGSGSGTDFTLTISSLQAEDVAVYYCQQYYRFPLAFGQSTKVEIKR
notes: IgG1; also called ST2 Antibody 62
B18: Human ST2 IgG1 Antibody 55 (antibody, V domains shown)
VH: QVQLVQSGAEVKKPGSSVKVSCKASGGTFSSYAISWVRQAPGQGLEWMGDIIPVIDTTNYAQKFQGRVTITADESTSTAYMELSSLRSEDTAVYYCARASGYPFGRWFDPWGQGTLVTVSS
VL: not shown
notes: IgG1; also called ST2 Antibody 55
B19: Human ST2 IgG1 Antibody 49 (antibody, V domains shown)
VH: QVQLVQSGAEVKKPGASVKVSCKASGGTLSSYAISWVRQAPGQGLEWMGGISPYNGKANYAEKLQGRVTMTRDTSTSTVYMELSSLRSEDTAVYYCAIRSIAAREGVYYYYMDVWGKGTTVTVSS
VL: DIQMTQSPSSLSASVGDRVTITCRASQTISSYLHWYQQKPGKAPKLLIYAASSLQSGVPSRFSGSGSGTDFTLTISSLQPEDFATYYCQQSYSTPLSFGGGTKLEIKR
notes: IgG1; also called ST2 Antibody 49
B20: Human ST2 IgG1 Antibody 52 (antibody, V domains shown)
VH: QVQLVQSGAEVKKPGSSVKVSCKASGGTFSNYAISWVRQAPGQGLEWMGWISAYNGNTNYAQKFQGRVTITADESTSTAYMELSSLRSEDTAVYYCARLSTVTTRPYYYYGMDVWGQGTTVTVSS
VL: DIVMTQSPLSLPVTPGEPASISCRSSQSLLHSNGYNYLDWYLQKPGQSPQLLIYAASSLQGGVPDRFSGSGSGTDFTLKISRVEAEDVGVYYCMQGTHWPTFGQGTKVEIKR
notes: IgG1; also called ST2 Antibody 52
B21: Human ST2 IgG1 Antibody 54 (antibody, V domains shown)
VH: EVQLLESGGGLVQPGGSLRLSCAASGFTVSSNYMSWVRQAPGKGLEWVSAISGSGGSTYYADSVKGRFTISRDNSKNTLYLQMNSLRAEDTAVYYCARGRFGSRDVWGKGTTVTVSS
VL: not shown
notes: IgG1; also called ST2 Antibody 54

target: T1, Human ST2; assay: SPR (Carterra), antibody immobilized, ST2 analyte
Experimental: Binding of the reformatted human ST2 antibodies to the human and mouse ST2 proteins was evaluated by surface plasmon resonance (SPR), using a high throughput antibody screening and characterization platform from Carterra (Salt Lake City, Utah).

| Kd [nM] | koff [s⁻¹] | kon [M⁻¹ s⁻¹] | Binder |
| --- | --- | --- | --- |
| 970 | 0.14 | 150000 | B1 |
| 738 | 0.1 | 140000 | B2 |
| 1000 | 0.19 | 190000 | B3 |
| 154 | 0.043 | 280000 | B4 |
| 268 | 0.099 | 370000 | B5 |
| 628 | 0.14 | 220000 | B6 |
| 140 | 0.072 | 510000 | B7 |
| 1100 | 0.12 | 110000 | B8 |
| 740 | 0.12 | 160000 | B9 |
| 563 | 0.14 | 260000 | B10 |
| 96 | 0.043 | 450000 | B11 |
| 176 | 0.0028 | 16000 | B12 |
| 71 | 0.029 | 410000 | B13 |
| 366 | 0.12 | 330000 | B14 |
| 213 | 0.075 | 350000 | B15 |
| 704 | 0.13 | 190000 | B16 |
| 71 | 0.068 | 960000 | B17 |
| 349 | 0.1 | 300000 | B18 |
| 269 | 0.085 | 320000 | B19 |
| 932 | 0.15 | 160000 | B20 |
| 81 | 0.029 | 360000 | B21 |
